The test addresses GST-USP7 (human, UniProt Q93009-1 1-1102). Kind of test: pull-down.

Chain of GST-USP7 (Q93009 whole entry): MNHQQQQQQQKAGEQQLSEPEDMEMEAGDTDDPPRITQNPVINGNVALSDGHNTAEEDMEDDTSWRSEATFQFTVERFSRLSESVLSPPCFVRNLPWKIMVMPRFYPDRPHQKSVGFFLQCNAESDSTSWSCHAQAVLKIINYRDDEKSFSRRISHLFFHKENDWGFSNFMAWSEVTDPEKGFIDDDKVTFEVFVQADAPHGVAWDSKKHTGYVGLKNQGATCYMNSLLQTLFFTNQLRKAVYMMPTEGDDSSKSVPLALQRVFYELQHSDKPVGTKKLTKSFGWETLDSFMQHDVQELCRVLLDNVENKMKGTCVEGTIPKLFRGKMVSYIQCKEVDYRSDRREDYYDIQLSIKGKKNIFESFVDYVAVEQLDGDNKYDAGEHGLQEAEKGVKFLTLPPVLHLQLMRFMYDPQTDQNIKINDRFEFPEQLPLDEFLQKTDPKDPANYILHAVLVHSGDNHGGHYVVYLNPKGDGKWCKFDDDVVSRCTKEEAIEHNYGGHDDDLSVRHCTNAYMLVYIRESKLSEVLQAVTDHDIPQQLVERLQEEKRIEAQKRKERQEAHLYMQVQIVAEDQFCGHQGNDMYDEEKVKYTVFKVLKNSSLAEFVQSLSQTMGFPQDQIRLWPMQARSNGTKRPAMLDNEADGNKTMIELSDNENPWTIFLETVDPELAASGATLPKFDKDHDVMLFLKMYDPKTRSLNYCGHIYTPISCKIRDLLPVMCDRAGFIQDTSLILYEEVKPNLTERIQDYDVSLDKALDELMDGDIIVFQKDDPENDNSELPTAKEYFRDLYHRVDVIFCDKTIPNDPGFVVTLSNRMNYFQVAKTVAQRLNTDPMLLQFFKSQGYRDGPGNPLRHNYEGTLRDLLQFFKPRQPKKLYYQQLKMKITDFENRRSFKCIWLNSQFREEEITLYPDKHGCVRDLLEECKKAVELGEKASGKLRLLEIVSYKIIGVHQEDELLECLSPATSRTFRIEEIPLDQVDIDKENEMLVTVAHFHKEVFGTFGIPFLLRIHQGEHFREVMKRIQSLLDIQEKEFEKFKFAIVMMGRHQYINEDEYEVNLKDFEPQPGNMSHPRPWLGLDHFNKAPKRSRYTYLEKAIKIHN

B1: FlagHis12-tagged mouse Mel18 (natural protein)
chain: MHRTTRIKITELNPHLMCALCGGYFIDATTIVECLHSFCKTCIVRYLETNKYCPMCDVQVHKTRPLLSIRSDKTLQDIVYKLVPGLFKDEMKRRRDFYAAYPLTEVPNGSNEDRGEVLEQEKGALGDDEIVSLSIEFYEGVRDREEKKNLTENGDGDKEKTGVRFLRCPAAMTVMHLAKFLRNKMDVPSKYKVEILYEDEPLKEYYTLMDIAYIYPWRRNGPLPLKYRVQPACKRLTLPTVPTPSEGTNTSGASECESVSDKAPSPATLPATSSSLPSPATPSHGSPSSHGPPATHPTSPTPPSTAAGTTTATNGGTSNCLQTPSSTSRGRKMTVNGAPCPP
Turning to B1, the binding result is “binds”.

B2: FlagHis12-tagged mouse Bmi1 (natural protein)
chain: MHRTTRIKITELNPHLMCVLCGGYFIDATTIIECLHSFCKTCIVRYLETSKYCPICDVQVHKTRPLLNIRSDKTLQDIVYKLVPGLFKNEMKRRRDFYAAHPSADAANGSNEDRGEVADEEKRIITDDEIISLSIEFFDQSRLDRKVNKEKPKEEVNDKRYLRCPAAMTVMHLRKFLRSKMDIPNTFQIDVMYEEEPLKDYYTLMDIAYIYTWRRNGPLPLKYRVRPTCKRMKMSHQRDGLTNAGELESDSGSDKANSPAGGVPSTSSCLPSPSTPVQSPHPQFPHISSTMNGTSNSPSANHQSSFASRPRKSSLNGSSATSSG
As for B2, the binding result is “binds”.

B3: FlagHis12-tagged mouse Ring1b (natural protein)
chain: MSQAVQTNGTQPLSKTWELSLYELQRTPQEAITDGLEIVVSPRSLHSELMCPICLDMLKNTMTTKECLHRFCADCIITALRSGNKECPTCRKKLVSKRSLRPDPNFDALISKIYPSRDEYEAHQERVLARINKHNNQQALSHSIEEGLKIQAMNRLQRGKKQQIENGSGAEDNGDSSHCSNASTHSNQEAGPSNKRTKTSDDSGLELDNNNAAVAIDPVMDGASEIELVFRPHPTLMEKDDSAQTRYIKTSGNATVDHLSKYLAVRLALEELRSKGESNQMNLDTASEKQYTIYIATASGQFTVLNGSFSLELVSEKYWKVNKPMELYYAPTKEHK
In the case of B3, the binding result was “binds”.

B4: CBX8-Flag purified from bacteria (natural protein)
chain: MELSAVGERVFAAEALLKRRIRKGRMEYLVKWKGWSQKYSTWEPEENILDARLLAAFEEREREMELYGPKKRGPKPKTFLLKAQAKAKAKTYEFRSDSARGIRIPYPGRSPQDLASTSRAREGLRNMGLSPPASSTSTSSTCRAEAPRDRDRDRDRDRERDRERERERERERERERERERGTSRVDDKPSSPGDSSKKRGPKPRKELPDPSQRPLGEPSAGLGEYLKGRKLDDTPSGAGKFPAGHSVIQLARRQDSDLVQCGVTSPSSAEATGKLAVDTFPARVIKHRAAFLEAKGQGALDPNGTRVRHGSGPPSSGGGLYRDMGAQGGRPSLIARIPVARILGDPEEESWSPSLTNLEKVVVTDVTSNFLTVTIKESNTDQGFFKEKR
Take B4: the binding result is on record as “binds”.

The values are drawn from PMC2928679 (The EMBO Journal, 2010).
